Here are results for three molecules from publication PMC8213813, “Mechanism of genome instability mediated by human DNA polymerase mu misincorporation”.

Data set [1] has as its target T1, DNA polymerase mu core domain (WT) (Homo sapiens, UniProt Q9NP87 136-494, del398-410). As to the kind of experiment: X-ray crystallography; binary; Mg2+; Crystals: protein (~7 mg/ml in 25 mM Tris/HCl pH 7.5, 100 mM KCl, 1 mM DTT) with DNA at 1:1.5; binary: 0.1 M sodium citrate pH 5.5, 18% 2-propanol, PEG4000; ternary: pH 6.5-8.0, PEG3350 or PEG10000; nucleotide/metal soak 4 h at 4 °C. Particulars: protein: recombinant; tags: His (pET28a, nickel purified); template 9 nt + upstream primer 4 nt + downstream primer 4 nt; 1-nt gap; blunt outer ends.

For data set [2], the target named is DNA polymerase mu core domain Q441A (Homo sapiens, UniProt Q9NP87 136-494, Q441A;del398-410). As to the kind of experiment: X-ray crystallography; dGMPNPP, 10 mM Mg2+ (Complex 4); Crystals: protein (~7 mg/ml in 25 mM Tris/HCl pH 7.5, 100 mM KCl, 1 mM DTT) with DNA at 1:1.5; binary: 0.1 M sodium citrate pH 5.5, 18% 2-propanol, PEG4000; ternary: pH 6.5-8.0, PEG3350 or PEG10000; nucleotide/metal soak 4 h at 4 °C. Particulars: protein: recombinant; tags: His (pET28a, nickel purified); template 9 nt + upstream primer 4 nt + downstream primer 4 nt; 1-nt gap; blunt outer ends.

Data set [3] has as its target T2, DNA polymerase mu core domain K438A/Q441A (Homo sapiens, UniProt Q9NP87 136-494, K438A;Q441A;del398-410). As to the kind of experiment: X-ray crystallography; dGMPNPP, 10 mM Mg2+ (Complex 5); Crystals: protein (~7 mg/ml in 25 mM Tris/HCl pH 7.5, 100 mM KCl, 1 mM DTT) with DNA at 1:1.5; binary: 0.1 M sodium citrate pH 5.5, 18% 2-propanol, PEG4000; ternary: pH 6.5-8.0, PEG3350 or PEG10000; nucleotide/metal soak 4 h at 4 °C. Particulars: protein: recombinant; tags: His (pET28a, nickel purified); template 9 nt + upstream primer 4 nt + downstream primer 4 nt; 1-nt gap; blunt outer ends.

Data set [4] concerns the target T1, DNA polymerase mu core domain (WT). Description: X-ray crystallography; dGMPNPP, 10 mM Mg2+ (Complex 1); Crystals: protein (~7 mg/ml in 25 mM Tris/HCl pH 7.5, 100 mM KCl, 1 mM DTT) with DNA at 1:1.5; binary: 0.1 M sodium citrate pH 5.5, 18% 2-propanol, PEG4000; ternary: pH 6.5-8.0, PEG3350 or PEG10000; nucleotide/metal soak 4 h at 4 °C. Particulars: protein: recombinant; tags: His (pET28a, nickel purified); template 10 nt + upstream primer 4 nt + downstream primer 4 nt; 2-nt gap; blunt outer ends.

The target of data set [5] is T2, DNA polymerase mu core domain …. Description: X-ray crystallography; post-insertion; second dGTP (10 mM soak), 10 mM Mg2+, Na+; Crystals: protein (~7 mg/ml in 25 mM Tris/HCl pH 7.5, 100 mM KCl, 1 mM DTT) with DNA at 1:1.5; binary: 0.1 M sodium citrate pH 5.5, 18% 2-propanol, PEG4000; ternary: pH 6.5-8.0, PEG3350 or PEG10000; nucleotide/metal soak 4 h at 4 °C. Particulars: protein: recombinant; tags: His (pET28a, nickel purified); template 9 nt + extended primer 5 nt + downstream primer 4 nt; nascent dG displaced by second dGTP.

T2 sequence (Q9NP87 other isoform, or with tags, fused parts or gaps K438A;Q441A;del398-410 | K438A Q441A K438A Q441A): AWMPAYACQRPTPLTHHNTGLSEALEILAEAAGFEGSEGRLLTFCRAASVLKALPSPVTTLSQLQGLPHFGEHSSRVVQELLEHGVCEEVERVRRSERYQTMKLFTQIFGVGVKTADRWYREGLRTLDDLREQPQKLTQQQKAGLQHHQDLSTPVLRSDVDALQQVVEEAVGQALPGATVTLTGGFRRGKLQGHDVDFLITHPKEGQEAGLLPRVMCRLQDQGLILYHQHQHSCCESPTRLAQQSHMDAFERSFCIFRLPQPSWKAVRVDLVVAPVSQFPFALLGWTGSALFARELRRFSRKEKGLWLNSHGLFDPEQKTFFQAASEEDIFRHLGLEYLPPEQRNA
T1 sequence (Q9NP87 other isoform, or with tags, fused parts or gaps del398-410): as the sequence (Q9NP87 other isoform, or with tags, fused parts or gaps K438A;Q441A;del398-410 | K438A Q441A K438A Q441A) above, with A290K, A293Q counted along it
DNA polymerase mu core domain Q441A, sequence (Q9NP87 other isoform, or with tags, fused parts or gaps Q441A;del398-410 | Q441A Q441A): as the sequence (Q9NP87 other isoform, or with tags, fused parts or gaps K438A;Q441A;del398-410 | K438A Q441A K438A Q441A) above, with A290K counted along it

B1: 1-nt gapped DNA, templating T (crystallization) (dsDNA)
DNA 1: CGGCTTACG
DNA 2: CGTA
DNA 3: GCCG
modifications: 5'-phosphate on downstream primer
For the molecule B1, the binding result in data set [1], in data set [2] and in data set [3] was “binds” each time.

B2: 2-nt gapped DNA, templating TT (crystallization) (dsDNA)
DNA 1: CGGCTTTACG
DNA 2: CGTA
DNA 3: GCCG
modifications: 5'-phosphate on downstream primer
For the molecule B2, the binding result in data set [4] is “binds”.

B3: 1-nt gapped DNA after dGTP insertion (T:G product) (dsDNA)
DNA 1: CGGCTTACG
DNA 2: CGTAG
DNA 3: GCCG
modifications: 5'-phosphate on downstream primer
Take B3: in data set [5], the binding result is listed as “binds”.
